The source of these data is US11851495 (Boehringer Ingelheim, dated 2023).

The target in one assay is cadherin-17 (CDH17) (human, UniProt Q12864 23-832). Description: cell-based or functional assay.
The target in assay [1] is TNF-related apoptosis-inducing ligand receptor 2 (TRAILR2) (human, UniProt O14763 56-440). As to the kind of experiment: cell-based or functional assay.

B1: CDH17H2/TR2v2-(IgG1 KO) (bispecific antibody)
heavy: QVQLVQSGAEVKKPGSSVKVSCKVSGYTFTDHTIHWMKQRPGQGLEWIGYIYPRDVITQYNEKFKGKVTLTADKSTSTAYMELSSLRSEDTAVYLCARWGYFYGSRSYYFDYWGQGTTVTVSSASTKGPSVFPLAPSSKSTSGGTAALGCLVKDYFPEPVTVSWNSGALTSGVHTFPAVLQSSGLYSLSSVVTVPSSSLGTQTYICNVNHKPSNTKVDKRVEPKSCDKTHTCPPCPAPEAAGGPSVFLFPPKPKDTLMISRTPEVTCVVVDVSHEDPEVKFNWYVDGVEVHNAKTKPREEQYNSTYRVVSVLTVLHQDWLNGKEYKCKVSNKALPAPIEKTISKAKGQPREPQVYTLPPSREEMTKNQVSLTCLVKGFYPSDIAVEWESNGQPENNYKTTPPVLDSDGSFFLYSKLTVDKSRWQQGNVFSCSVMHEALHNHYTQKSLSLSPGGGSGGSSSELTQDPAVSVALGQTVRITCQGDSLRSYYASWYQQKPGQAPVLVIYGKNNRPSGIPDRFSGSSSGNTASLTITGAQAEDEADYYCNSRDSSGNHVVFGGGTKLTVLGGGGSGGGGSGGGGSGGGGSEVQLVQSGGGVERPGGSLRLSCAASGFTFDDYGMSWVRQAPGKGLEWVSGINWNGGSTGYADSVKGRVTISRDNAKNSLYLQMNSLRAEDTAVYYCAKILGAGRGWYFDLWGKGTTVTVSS
light: DIQMTQSQSSLSASVGDRVGITCKASQNVGTAVAWYQQKPGKAPKLLIYSASNRYTGVPSRFSGSGSGTDFTLTISSLQPKDFATYFCQQYSSYPWTFGQGTKLEIKRTVAAPSVFIFPPSDEQLKSGTASVVCLLNNFYPREAKVQWKVDNALQSGNSQESVTEQDSKDSTYSLSSTLTLSKADYEKHKVYACEVTHQGLSSPVTKSFNRGEC
With B1, the “cell viability of Colo-205 cells, 24 h” value with cadherin-17 (CDH17) was found to be 0.01 nM. Further, in assay [1], the “cell viability of Colo-205 cells, 24 h” value was found to be 0.01 nM and the “concentration needed for an effect on viability of HepG2 cells (CDH17 negative), 72 h” value (“concentration needed for an effect” for short) was above 1 nM.

B2: CDH17H2/TR2v7-(IgG1 KO) (bispecific antibody)
heavy: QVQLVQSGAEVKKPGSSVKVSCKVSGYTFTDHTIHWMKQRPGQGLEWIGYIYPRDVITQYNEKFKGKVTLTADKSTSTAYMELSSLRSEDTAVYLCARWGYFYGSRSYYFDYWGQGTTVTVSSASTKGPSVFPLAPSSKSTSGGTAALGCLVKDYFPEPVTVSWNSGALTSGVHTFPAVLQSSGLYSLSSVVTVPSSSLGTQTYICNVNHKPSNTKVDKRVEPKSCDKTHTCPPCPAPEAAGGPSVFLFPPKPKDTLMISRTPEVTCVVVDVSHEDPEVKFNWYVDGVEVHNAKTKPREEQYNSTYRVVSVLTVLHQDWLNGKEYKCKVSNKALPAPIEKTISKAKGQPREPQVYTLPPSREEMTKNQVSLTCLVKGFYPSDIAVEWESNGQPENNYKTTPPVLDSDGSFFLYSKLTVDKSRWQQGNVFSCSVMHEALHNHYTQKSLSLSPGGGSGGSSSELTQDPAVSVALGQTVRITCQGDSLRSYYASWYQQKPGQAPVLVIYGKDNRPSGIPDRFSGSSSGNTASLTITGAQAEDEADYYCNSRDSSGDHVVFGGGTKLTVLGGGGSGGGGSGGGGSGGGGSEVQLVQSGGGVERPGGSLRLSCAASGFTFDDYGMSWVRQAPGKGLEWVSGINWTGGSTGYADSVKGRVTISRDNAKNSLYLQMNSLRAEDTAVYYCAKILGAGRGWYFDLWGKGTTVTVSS
light: DIQMTQSQSSLSASVGDRVGITCKASQNVGTAVAWYQQKPGKAPKLLIYSASNRYTGVPSRFSGSGSGTDFTLTISSLQPKDFATYFCQQYSSYPWTFGQGTKLEIKRTVAAPSVFIFPPSDEQLKSGTASVVCLLNNFYPREAKVQWKVDNALQSGNSQESVTEQDSKDSTYSLSSTLTLSKADYEKHKVYACEVTHQGLSSPVTKSFNRGEC
Take B2: the “cell viability of Colo-205 cells, 24 h” value with cadherin-17 (CDH17) was determined as 0.01 nM. Also, in assay [1], the “cell viability of Colo-205 cells, 24 h” value amounted to 0.01 nM and the “concentration needed for an effect” value was above 1 nM.

B3: CDH17H2/TR2v4-(IgG1 KO) (bispecific antibody)
heavy: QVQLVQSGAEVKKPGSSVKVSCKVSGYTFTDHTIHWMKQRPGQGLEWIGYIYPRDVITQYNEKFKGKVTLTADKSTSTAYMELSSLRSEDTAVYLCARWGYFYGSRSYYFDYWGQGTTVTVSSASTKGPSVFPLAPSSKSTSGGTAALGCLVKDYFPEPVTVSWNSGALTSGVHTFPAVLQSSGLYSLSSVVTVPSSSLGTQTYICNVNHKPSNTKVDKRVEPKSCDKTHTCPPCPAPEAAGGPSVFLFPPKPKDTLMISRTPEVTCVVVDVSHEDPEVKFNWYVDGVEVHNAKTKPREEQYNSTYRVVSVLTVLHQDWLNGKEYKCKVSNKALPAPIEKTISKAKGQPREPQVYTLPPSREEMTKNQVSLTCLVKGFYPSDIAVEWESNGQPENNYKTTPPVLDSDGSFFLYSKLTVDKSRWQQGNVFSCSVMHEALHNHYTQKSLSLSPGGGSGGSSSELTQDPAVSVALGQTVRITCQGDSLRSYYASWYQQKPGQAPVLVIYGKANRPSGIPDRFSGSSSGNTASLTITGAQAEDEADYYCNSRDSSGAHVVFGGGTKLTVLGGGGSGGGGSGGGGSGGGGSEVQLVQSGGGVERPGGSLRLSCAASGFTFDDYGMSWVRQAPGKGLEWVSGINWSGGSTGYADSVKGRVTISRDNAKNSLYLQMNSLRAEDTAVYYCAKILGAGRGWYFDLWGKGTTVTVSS
light: DIQMTQSQSSLSASVGDRVGITCKASQNVGTAVAWYQQKPGKAPKLLIYSASNRYTGVPSRFSGSGSGTDFTLTISSLQPKDFATYFCQQYSSYPWTFGQGTKLEIKRTVAAPSVFIFPPSDEQLKSGTASVVCLLNNFYPREAKVQWKVDNALQSGNSQESVTEQDSKDSTYSLSSTLTLSKADYEKHKVYACEVTHQGLSSPVTKSFNRGEC
With B3, the “cell viability of Colo-205 cells, 24 h” value with cadherin-17 (CDH17) was 0.01 nM. Also, in assay [1], the “cell viability of Colo-205 cells, 24 h” value worked out at 0.01 nM and the “concentration needed for an effect” value was above 1 nM.

B4: CDH17H2/TR2v5-(IgG1 KO) (bispecific antibody)
heavy: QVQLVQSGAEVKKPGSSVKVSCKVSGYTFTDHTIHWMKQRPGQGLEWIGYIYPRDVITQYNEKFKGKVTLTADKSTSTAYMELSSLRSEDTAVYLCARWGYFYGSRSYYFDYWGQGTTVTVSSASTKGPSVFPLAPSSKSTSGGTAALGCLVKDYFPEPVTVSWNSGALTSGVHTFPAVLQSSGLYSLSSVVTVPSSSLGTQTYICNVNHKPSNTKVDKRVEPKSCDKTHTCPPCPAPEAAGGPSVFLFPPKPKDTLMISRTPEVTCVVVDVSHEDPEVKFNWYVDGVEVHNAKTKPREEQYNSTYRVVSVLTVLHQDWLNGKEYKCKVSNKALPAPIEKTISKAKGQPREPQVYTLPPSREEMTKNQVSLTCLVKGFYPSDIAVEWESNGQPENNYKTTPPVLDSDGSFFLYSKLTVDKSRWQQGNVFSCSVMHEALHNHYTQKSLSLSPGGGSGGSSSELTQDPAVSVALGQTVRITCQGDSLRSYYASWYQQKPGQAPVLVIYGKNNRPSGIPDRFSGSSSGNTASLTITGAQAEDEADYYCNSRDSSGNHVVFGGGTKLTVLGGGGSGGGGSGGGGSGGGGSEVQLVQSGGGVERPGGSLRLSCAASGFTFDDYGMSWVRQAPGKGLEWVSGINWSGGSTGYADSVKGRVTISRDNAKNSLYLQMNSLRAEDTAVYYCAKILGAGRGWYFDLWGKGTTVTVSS
light: DIQMTQSQSSLSASVGDRVGITCKASQNVGTAVAWYQQKPGKAPKLLIYSASNRYTGVPSRFSGSGSGTDFTLTISSLQPKDFATYFCQQYSSYPWTFGQGTKLEIKRTVAAPSVFIFPPSDEQLKSGTASVVCLLNNFYPREAKVQWKVDNALQSGNSQESVTEQDSKDSTYSLSSTLTLSKADYEKHKVYACEVTHQGLSSPVTKSFNRGEC
Turning to B4, the “cell viability of Colo-205 cells, 24 h” value with cadherin-17 (CDH17) was 0.01 nM. In addition, in assay [1], the “cell viability of Colo-205 cells, 24 h” value was 0.01 nM and the “concentration needed for an effect” value was above 1 nM.

B5: CDH17H2/TR2v6-(IgG1 KO) (bispecific antibody)
heavy: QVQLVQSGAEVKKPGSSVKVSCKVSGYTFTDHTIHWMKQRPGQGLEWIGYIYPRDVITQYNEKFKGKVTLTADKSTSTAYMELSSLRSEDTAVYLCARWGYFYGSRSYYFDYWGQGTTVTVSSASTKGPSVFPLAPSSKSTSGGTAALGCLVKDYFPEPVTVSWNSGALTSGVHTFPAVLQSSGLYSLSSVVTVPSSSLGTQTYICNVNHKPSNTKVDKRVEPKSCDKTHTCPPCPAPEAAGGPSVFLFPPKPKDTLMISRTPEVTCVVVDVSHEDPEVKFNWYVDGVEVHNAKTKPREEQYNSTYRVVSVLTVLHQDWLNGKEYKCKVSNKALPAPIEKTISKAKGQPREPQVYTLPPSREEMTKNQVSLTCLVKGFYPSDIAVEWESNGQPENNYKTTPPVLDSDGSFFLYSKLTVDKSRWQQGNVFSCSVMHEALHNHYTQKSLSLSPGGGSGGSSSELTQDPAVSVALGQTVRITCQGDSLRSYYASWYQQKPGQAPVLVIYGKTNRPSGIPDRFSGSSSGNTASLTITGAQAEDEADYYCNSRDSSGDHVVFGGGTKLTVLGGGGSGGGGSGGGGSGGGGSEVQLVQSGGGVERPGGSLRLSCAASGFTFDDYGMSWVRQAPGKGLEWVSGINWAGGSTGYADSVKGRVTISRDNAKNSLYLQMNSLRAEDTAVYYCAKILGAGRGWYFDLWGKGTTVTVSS
light: DIQMTQSQSSLSASVGDRVGITCKASQNVGTAVAWYQQKPGKAPKLLIYSASNRYTGVPSRFSGSGSGTDFTLTISSLQPKDFATYFCQQYSSYPWTFGQGTKLEIKRTVAAPSVFIFPPSDEQLKSGTASVVCLLNNFYPREAKVQWKVDNALQSGNSQESVTEQDSKDSTYSLSSTLTLSKADYEKHKVYACEVTHQGLSSPVTKSFNRGEC
For B5, the “cell viability of Colo-205 cells, 24 h” value (with cadherin-17 (CDH17); in assay [1]) was 0.01 nM throughout. Moreover, the “concentration needed for an effect” value in assay [1] is above 1 nM.

B6: CDH17H2/TR2v3-(IgG1 KO) (bispecific antibody)
heavy: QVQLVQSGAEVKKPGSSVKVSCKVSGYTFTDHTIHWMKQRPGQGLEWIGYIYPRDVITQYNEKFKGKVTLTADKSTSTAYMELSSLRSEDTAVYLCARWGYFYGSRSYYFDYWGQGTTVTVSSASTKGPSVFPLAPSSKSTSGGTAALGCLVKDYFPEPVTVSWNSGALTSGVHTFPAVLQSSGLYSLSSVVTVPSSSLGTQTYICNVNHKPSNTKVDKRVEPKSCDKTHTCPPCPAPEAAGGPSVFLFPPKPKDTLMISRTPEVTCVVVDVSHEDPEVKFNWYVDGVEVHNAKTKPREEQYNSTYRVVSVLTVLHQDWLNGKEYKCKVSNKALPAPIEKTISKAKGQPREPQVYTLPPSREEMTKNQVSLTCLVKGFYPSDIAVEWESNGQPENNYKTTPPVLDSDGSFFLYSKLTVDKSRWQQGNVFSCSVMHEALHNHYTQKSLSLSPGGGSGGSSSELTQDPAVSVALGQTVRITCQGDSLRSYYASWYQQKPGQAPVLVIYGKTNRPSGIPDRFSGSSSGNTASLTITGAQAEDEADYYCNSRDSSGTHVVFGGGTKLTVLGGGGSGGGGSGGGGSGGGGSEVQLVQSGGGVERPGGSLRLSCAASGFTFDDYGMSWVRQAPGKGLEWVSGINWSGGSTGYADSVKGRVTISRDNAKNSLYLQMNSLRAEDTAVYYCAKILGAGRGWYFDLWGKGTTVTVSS
light: DIQMTQSQSSLSASVGDRVGITCKASQNVGTAVAWYQQKPGKAPKLLIYSASNRYTGVPSRFSGSGSGTDFTLTISSLQPKDFATYFCQQYSSYPWTFGQGTKLEIKRTVAAPSVFIFPPSDEQLKSGTASVVCLLNNFYPREAKVQWKVDNALQSGNSQESVTEQDSKDSTYSLSSTLTLSKADYEKHKVYACEVTHQGLSSPVTKSFNRGEC
Consider B6, for which the “cell viability of Colo-205 cells, 24 h” value (with cadherin-17 (CDH17); in assay [1]) was 0.01 nM in each case. Also, in assay [1], the “concentration needed for an effect” value was above 1 nM.

B7: CDH17v1/TR2v1 (bispecific antibody, human IgG1, kappa)
heavy: not shown
light: DIVMSQSPSSLAVSVGEKVTMSCKSSQSLLHSSNQKNYLAWYQQKPGQSPKVLIYWASTRESGVPDRFTGSGSGTDFTLTITSVKSEDLAVYYCQQYYSYPWTFGGGTRLEIKRTVAAPSVFIFPPSDEQLKSGTASVVCLLNNFYPREAKVQWKVDNALQSGNSQESVTEQDSKDSTYSLSSTLTLSKADYEKHKVYACEVTHQGLSSPVTKSFNRGEC
As to B7, the “cell viability of Colo-205 cells, 24 h (CellTiter-Glo)” value (with cadherin-17 (CDH17); in assay [1]) was above 1000 fold throughout.

B8: CDH17v1/TR2v1-(IgG1 KO) (bispecific antibody)
heavy: not shown
light: DIVMSQSPSSLAVSVGEKVTMSCKSSQSLLHSSNQKNYLAWYQQKPGQSPKVLIYWASTRESGVPDRFTGSGSGTDFTLTITSVKSEDLAVYYCQQYYSYPWTFGGGTRLEIKRTVAAPSVFIFPPSDEQLKSGTASVVCLLNNFYPREAKVQWKVDNALQSGNSQESVTEQDSKDSTYSLSSTLTLSKADYEKHKVYACEVTHQGLSSPVTKSFNRGEC
Consider B8, for which the “cell viability of Colo-205 cells, 24 h” value (with cadherin-17 (CDH17); in assay [1]) was 0.01 nM each time.

B9: CDH17v1/TR2#3-(IgG1 KO) (bispecific antibody)
heavy: not shown
light: DIVMSQSPSSLAVSVGEKVTMSCKSSQSLLHSSNQKNYLAWYQQKPGQSPKVLIYWASTRESGVPDRFTGSGSGTDFTLTITSVKSEDLAVYYCQQYYSYPWTFGGGTRLEIKRTVAAPSVFIFPPSDEQLKSGTASVVCLLNNFYPREAKVQWKVDNALQSGNSQESVTEQDSKDSTYSLSSTLTLSKADYEKHKVYACEVTHQGLSSPVTKSFNRGEC
In the case of B9, the “cell viability of Colo-205 cells, 24 h” value (with cadherin-17 (CDH17); in assay [1]) was 0.01 nM in each case.

B10: CDH17v1/TR2#2-(IgG1 KO) (bispecific antibody)
heavy: not shown
light: DIVMSQSPSSLAVSVGEKVTMSCKSSQSLLHSSNQKNYLAWYQQKPGQSPKVLIYWASTRESGVPDRFTGSGSGTDFTLTITSVKSEDLAVYYCQQYYSYPWTFGGGTRLEIKRTVAAPSVFIFPPSDEQLKSGTASVVCLLNNFYPREAKVQWKVDNALQSGNSQESVTEQDSKDSTYSLSSTLTLSKADYEKHKVYACEVTHQGLSSPVTKSFNRGEC
Turning to B10, the “cell viability of Colo-205 cells, 24 h” value (in the assay with cadherin-17 (CDH17); in assay [1]) was 0.01 nM in each case.

B11: CDH17v1/TR2#1-(IgG1 KO) (bispecific antibody)
heavy: not shown
light: DIVMSQSPSSLAVSVGEKVTMSCKSSQSLLHSSNQKNYLAWYQQKPGQSPKVLIYWASTRESGVPDRFTGSGSGTDFTLTITSVKSEDLAVYYCQQYYSYPWTFGGGTRLEIKRTVAAPSVFIFPPSDEQLKSGTASVVCLLNNFYPREAKVQWKVDNALQSGNSQESVTEQDSKDSTYSLSSTLTLSKADYEKHKVYACEVTHQGLSSPVTKSFNRGEC
On to B11, for which the “cell viability of Colo-205 cells, 24 h” value (with cadherin-17 (CDH17); in assay [1]) was 0.01 nM each time.

B12: CDH17v1/TR2#8-(IgG1 KO) (bispecific antibody)
heavy: not shown
light: DIVMSQSPSSLAVSVGEKVTMSCKSSQSLLHSSNQKNYLAWYQQKPGQSPKVLIYWASTRESGVPDRFTGSGSGTDFTLTITSVKSEDLAVYYCQQYYSYPWTFGGGTRLEIKRTVAAPSVFIFPPSDEQLKSGTASVVCLLNNFYPREAKVQWKVDNALQSGNSQESVTEQDSKDSTYSLSSTLTLSKADYEKHKVYACEVTHQGLSSPVTKSFNRGEC
As for B12, the “cell viability of Colo-205 cells, 24 h” value (with cadherin-17 (CDH17); in assay [1]) was 0.01 nM in each case.

B13: CDH17v1/TR2#10-(IgG1 KO) (bispecific antibody)
heavy: not shown
light: DIVMSQSPSSLAVSVGEKVTMSCKSSQSLLHSSNQKNYLAWYQQKPGQSPKVLIYWASTRESGVPDRFTGSGSGTDFTLTITSVKSEDLAVYYCQQYYSYPWTFGGGTRLEIKRTVAAPSVFIFPPSDEQLKSGTASVVCLLNNFYPREAKVQWKVDNALQSGNSQESVTEQDSKDSTYSLSSTLTLSKADYEKHKVYACEVTHQGLSSPVTKSFNRGEC
As to B13, the “cell viability of Colo-205 cells, 24 h” value (with cadherin-17 (CDH17); in assay [1]) was 0.01 nM in each case.

B14: anti-TRAILR2 antibody (anti-TR2v2) (antibody, V domains shown)
VH: EVQLVQSGGGVERPGGSLRLSCAASGFTFDDYGMSWVRQAPGKGLEWVSGINWNGGSTGYADSVKGRVTISRDNAKNSLYLQMNSLRAEDTAVYYCAKILGAGRGWYFDLWGKGTTVTVSS
VL: SSELTQDPAVSVALGQTVRITCQGDSLRSYYASWYQQKPGQAPVLVIYGKNNRPSGIPDRFSGSSSGNTASLTITGAQAEDEADYYCNSRDSSGNHVVFGGGTKLTVL
On to B14, for which the “cell viability of Colo-205 cells, 24 h” value in assay [1] stood at 0.01 nM.

B15: CDH17A6/TR2v2-(IgG1 KO) (bispecific antibody)
heavy: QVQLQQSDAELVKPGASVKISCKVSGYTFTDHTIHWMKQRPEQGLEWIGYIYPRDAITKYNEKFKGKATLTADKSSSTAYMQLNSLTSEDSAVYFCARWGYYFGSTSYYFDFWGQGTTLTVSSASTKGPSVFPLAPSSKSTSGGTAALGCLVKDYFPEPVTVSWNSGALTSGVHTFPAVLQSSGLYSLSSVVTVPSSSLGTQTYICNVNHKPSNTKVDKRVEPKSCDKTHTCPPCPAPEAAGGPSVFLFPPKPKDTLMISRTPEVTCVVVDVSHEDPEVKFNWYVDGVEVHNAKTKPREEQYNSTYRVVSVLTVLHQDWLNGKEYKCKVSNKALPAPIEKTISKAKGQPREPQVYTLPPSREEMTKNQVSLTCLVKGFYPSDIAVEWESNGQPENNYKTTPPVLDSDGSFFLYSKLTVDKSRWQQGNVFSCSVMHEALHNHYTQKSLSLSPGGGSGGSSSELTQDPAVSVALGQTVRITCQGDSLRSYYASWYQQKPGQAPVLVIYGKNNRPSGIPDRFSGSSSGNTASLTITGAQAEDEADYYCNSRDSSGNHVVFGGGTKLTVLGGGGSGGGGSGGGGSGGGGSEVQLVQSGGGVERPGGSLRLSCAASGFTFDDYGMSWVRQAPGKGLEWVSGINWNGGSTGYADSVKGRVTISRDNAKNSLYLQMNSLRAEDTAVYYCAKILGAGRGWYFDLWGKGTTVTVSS
light: DIVMTQSQKFMSTTVGDRVSITCKASQNVGTGVVWYQQRPGQSPKLLIYSPSNRYTGVPDRFTGSGSGTDFTLTITNIQSEDLADYFCQQYSTYPWTFGGGTKLEIKRTVAAPSVFIFPPSDEQLKSGTASVVCLLNNFYPREAKVQWKVDNALQSGNSQESVTEQDSKDSTYSLSSTLTLSKADYEKHKVYACEVTHQGLSSPVTKSFNRGEC
Take B15: the “cell viability of Colo-205 cells, 24 h” value (with cadherin-17 (CDH17); in assay [1]) was 0.01 nM throughout.

B16: CDH17E2/TR2v2-(IgG1 KO) (bispecific antibody)
heavy: not shown
light: DIVMTQSQKFMSTTVGDRVNITCKASQNVGTAVAWYQQKPGQSPKLLIYSASNRYTGVPDRFTGSGSGTDFTLTITNMQSKDLADYFCQQYSSYPWTFGGGTKLEIKRTVAAPSVFIFPPSDEQLKSGTASVVCLLNNFYPREAKVQWKVDNALQSGNSQESVTEQDSKDSTYSLSSTLTLSKADYEKHKVYACEVTHQGLSSPVTKSFNRGEC
With B16, the “cell viability of Colo-205 cells, 24 h” value (with cadherin-17 (CDH17); in assay [1]) was 0.01 nM throughout.

B17: CDH17E9/TR2v2-(IgG1 KO) (bispecific antibody)
heavy: not shown
light: DIVMTQSQTFMSTTVGDRVSITCKASQNVGTALAWYQQKPRQSPKLLIYSASNRFTGVPDRFTGSGSGTDFTLTISNMRSEDLADYVCQQYSTYPLTFGSGTKLEIRRTVAAPSVFIFPPSDEQLKSGTASVVCLLNNFYPREAKVQWKVDNALQSGNSQESVTEQDSKDSTYSLSSTLTLSKADYEKHKVYACEVTHQGLSSPVTKSFNRGEC
Take B17: the “cell viability of Colo-205 cells, 24 h” value (with cadherin-17 (CDH17); in assay [1]) was 0.01 nM in each case.
